Measured values reported in the nanobody polyreactivity screen of Harvey et al. (2022).

Assay: yeast display, Sf9 membrane polyspecificity reagent, FACS + sequencing; frameworks hold sequencing errors
In short: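 Sorting gates, low and high (top ~1%), were placed on anti-HA fluorescence to track expression and on streptavidin fluorescence to track reagent binding. A clone's polyreactivity label is taken from the gate it came out of. The reagent was 10% biotinylated, detergent-solubilized Sf9 membrane, applied for 1 hour at 4 °C to galactose-induced yeast display cells.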

## QVQLVESGGGLVQAGGSLRLSCAASGFTFFGYAMGWYRQAPGKERELVATISDTGGSTYADSVKGRFTISRDNAKNTVYLQMNSLKPEDTAVYYFNARSVFYSMDYWGQGTQVTVSS
  polyreactivity (PSR sort gate): low polyreactivity

## QVQLVESGGGLVQAGGSLRLSCAASGRTFDLYAMGWYRQAPGKERELVAAITKGGGSTYYADSVKGRFTLSRDNAKNTVYLQMHSLKPVDTAVYYCAARKYKRIYRISSGIGYYWGQGTQVTVSS
  polyreactivity (PSR sort gate): high polyreactivity

## QVQLVESGGGLVQAGGSLRLSCAASGSNFKSYAKGWYRQAPGKERELVAAITYRGGSTYYADSVKGRFTISRDNAKNTVSLQMNSLKPEDTAVYYCAADYQSVGGAEYDYWGQGTQVTVSS
  polyreactivity (PSR sort gate): high polyreactivity

## QVQLVESGGGLVQAGGSLLLSCAASGSIFSAYAMGWDRQAPGKERQLVAGISKRGGSTYYADSVKGRFTISRDNAKNTVYLQMNSLKPEDTAVYYCNAARYPYARAVTYHYPSYGYWGQGTQVTVSS
  polyreactivity (PSR sort gate): high polyreactivity

## QVQLVESGGGLVQAGGSLRLSCAASGFTFLGYVMGWYRQAPGKEREFVADITESGGRTYYADSVKGRFTISRDNAKNTVYLQMNSLKPEDTAVYYCAAELSYWGYYYSFDYWGQVTQVTVSS
  polyreactivity (PSR sort gate): low polyreactivity

## QVQRVESGGGLVQAGGSLPLSCAATGRTVRQNAMGWYGQAPGKVSELVAAISSSGTNTHYAVSVKGRFTISRDNANNTVYIVMNRLKPEDTAVYYCAADGWGARRKQYHDNGFWGTGTQVTVSS
  polyreactivity (PSR sort gate): high polyreactivity

## QVQLVESGGGLVQAGGSLRLSCAASGFTFDVNAMGWYRQAPGKERELVATISSNGGSTYYADSVKGRFTISRDNAKNTVYLQMNSLKPEDTAVYYCAADVYRLLRRYRYYYWGQGTQVTVSS
  polyreactivity (PSR sort gate): low polyreactivity

## QVQLVESGGGLVQAGGSLRLSCAASGSNFLSYAMGWYRQAPGKERELVAAITGSGGNTYYADSVKGRFTISRDNAKHTVYLQMKSLKPEDTAVYYCSAVATRSNYWRGFYYWGQGTKVTVSS
  polyreactivity (PSR sort gate): high polyreactivity

## QVQLVESGGGLVQAGGSLRLSCDASGFTFHPYTMGWYRQAPGKERELVASISWGGGSTYYADSVKGRFTISRDNAKNTVYLQMKSLNPEDTAVYYCAKDITYIYYYWGQGSQVTVSS
  polyreactivity (PSR sort gate): low polyreactivity

## QVQLVESGGGLVQAGGSLRLSCAPSGIIFPTYAMGWYRQAPGKERELVAAIRWNGGSTYYADSVKGRFTISRDNAKNTVFLQMTILKPEDTAVYYCAAGYRGSYKYYYWGQGTQVTVSS
  polyreactivity (PSR sort gate): high polyreactivity

## QVQLVESGGGLVQAGGSLRLSCAASGFTVGYAMGWYRQAPGTERELVAAITRGGGTRTSYADSVKGRFTISRDNAKNTVYLQMNSLKPEDTAVYYCAARRWWSPRTQYDYWGQGTQVTVSS
  polyreactivity (PSR sort gate): high polyreactivity

## QVQLVESGGGLVQAGGSLRLSCAASGRIFDGYAMGWYIQAPGKERELVAAISSRGGRTYYADSVKGRFTISRDNAKNTVYLQMNSLKPEDSAVYYCAADDPYGECDYWGQGTQVTVSS
  polyreactivity (PSR sort gate): low polyreactivity

## QVQLVESGGGLVQAGGSLRLSCPASGRILWFYAMGWYRQAPGKERELVAAISWNGGSTYYADSVKGRFTISRDNAKNTVYLQMNSLKPEDTAVYYCNKDPSVEWWFDYWGQGTQVTVSS
  polyreactivity (PSR sort gate): low polyreactivity

## QVQLVESGGGLVQAGGSLRLSCAASGRTFKRYAMGWYRQAPGKERELVARITYSGARTYYADSVKGRFTISRDNAKNTVYLQMNSLKPEDTAVYYCAAQQYWTSQYFRSATFDYWGQGTQVTVSS
  polyreactivity (PSR sort gate): high polyreactivity

## QVQLVESGGGLVQAGGSLRLSCAASGLIFVPYAMGWYIQAPGKERELVAAISRSGGSTYYADSVKGRFTISRDNAKNTVYLQMNSLKPEDTAVYYFATLNYYGEVEYWGQGTQVTVSS
  polyreactivity (PSR sort gate): high polyreactivity

## QVQLVESGGGLVQAGGSLRLTCAASGFTFGRYAMGWYRQAPGKERELVAAISTRGGSTYYADSVKGRFTISRDNAKNTVYLQMNSLKPEDTAVYYCAAGGYYVRYDYWGQGTQVTVSS
  polyreactivity (PSR sort gate): high polyreactivity

## QVQLVESGGGLVQAGGSLRLSCAASGRIFGTNAMGWYRPAPGKERELVARITISTASTYYADSVKGRFTISRDNAKNTVSLQMNSLKPEDTAVYYCGVRWYIRSRPKVYKYDYWGQGTQVTVSS
  polyreactivity (PSR sort gate): high polyreactivity

## QVQQVESGGGLVQAGVSLRLSCPASGLTFYTNPRGWYRQAPGKERELVAAIRRRGGRTYYADSVKGRFTISRDNATNSVYLQMNSLKPEDTAVSYCAADYSTLYNYDYWGQGTQVTVSS
  polyreactivity (PSR sort gate): low polyreactivity

## QVQLVESGGGLVQAGGSLRLSCAASGFTFGLYGMGWYRQAPGKERELVAAISSSGGDTYYADSVKGRFTISRDNAKNTVYLQMNSLKPEDTAVYYCAATADWATHDYWGQGTQVTVSS
  polyreactivity (PSR sort gate): low polyreactivity

## QVQLLESGGGLVQAGGSLRLSCAASGLTIKQYAMGWYRQAPGKESELVAAISKSGGRTYYADSVKGRFTISRDNAKNTVYLQMNSLKPEDTAVYYCNARAGQRQGWEYDYWGQGTQVTVSS
  polyreactivity (PSR sort gate): high polyreactivity

## QVQLVESGGGLVQAGGSLRLSCAASGFIFADNAMGWYRQAPGKERELVAAINLGGGDTYYADSVKGRFTISRDNAKNTVYLQMNSLKPEDTAVYYCATVWFSEGYDYNHWGQGTQVTVSS
  polyreactivity (PSR sort gate): low polyreactivity

## QVQLVESGVGLVQAGGSLRLSCAASGFTFPSYTMGWYRQAPGKERELVAAITSGGITYYADSVKGRFTISRDNANYTVYLQMNSLKPEDTAVYYCAVVNFRTSVYYPYRTMDYWGQGTQVTVSS
  polyreactivity (PSR sort gate): high polyreactivity

## QVQLVESGGGLVQAGGSLRLSCAASGFIFTYYAMGWFRQAPGKERELVAVISWSGGTTYYADSVKGRFTISRDNAKNTVYLQMNSLKPEDTAVFYCNARSLAKLPRSSVRVEYDYWGQGTQVTLSS
  polyreactivity (PSR sort gate): low polyreactivity

## QVQLVESGGGLVQAGGSLRLSCAASGFIFTVYAMGWYRQAPGKERELVAAINRSGTRTTYADSVKGRFSISRDNAKNTVYIQMNSLKPEDTAVYYCAALSTGSHWQNEYGYWGQGTQVTVSS
  polyreactivity (PSR sort gate): low polyreactivity

## QVQLVDSAGGLVQAGGSLRLSCAASGFIFRRNAMGWYRQAPGKERELVAGINRSGTRTYYADSVKGRFTISRDNAKNTVNLQMNSLKPEDTAVYYCAALVYRPTYGYIFDYWGQGTQVTVSS
  polyreactivity (PSR sort gate): high polyreactivity

## QVQLEDSGGGLDQAGGSLRLSCAASGITFIRYAMVWYRQAPGKERELVAAIPTSGSSKFYADSVKGRFTISRDNAKNTVYLQMNSLKPEDTAVYYCAAVFRWARLYTFYGSKVDYWGQGTQVTVSS
  polyreactivity (PSR sort gate): high polyreactivity

## QVQLVESGGGLVQAGGSLRLSCAASGGIFFPNAMGWYRQAPGKERELVAAISWSAGSTYYADSVKGRFTISRDNAKNTVYLQMNSLKPEDTAVYYCAAAGSNYTVWYGYYYWGQGTQVTVSS
  polyreactivity (PSR sort gate): low polyreactivity

## QVQLVESGGGLVQAGGSLRLSCAASGFIFARYAMGWYRQAPGKERELVAAISVSGGSTYYADSVKGRFTISRDNAKNTVYLQMNSLKPEDTAVYYCAATRPFVSGWIMDYWGQGTQVTVSS
  polyreactivity (PSR sort gate): high polyreactivity

## QVQLVESGGGLVQAGGSLRLTCAASGRTFRLYAMGWYRQAPGKERELVAAITRGGRTNYADSVKGRFTISRDNAKNTVYLQMNSLKPEDTAVYYCAARYVDRHTDYYYWGQGTQVTVSS
  polyreactivity (PSR sort gate): low polyreactivity

## QVQLVESGGGLVQAGGSLRLSCAASGRTFIWYVMGWYRQAPGKERELVASISTNGGNTYYADSVKGRFTISRDNAKNTVYLQMNSLKPEDTAVFYCAVDGVDAYYIAYYYWGQGTQVTVSS
  polyreactivity (PSR sort gate): high polyreactivity

## QVQLVESGGGLVQAGGSLRLSCAASGIIFTRYAMGWYRQAPGKERELVAAITTSGGRTYYADSVKGRFTISRDNAKNTVYLQMNSLKPEDTAVYYCAVSGHARYDYWGQGTQVTVSS
  polyreactivity (PSR sort gate): high polyreactivity

## QVQLVESGGGLVQAGGSLRLICAASGNSYIYNAMGSYRQAPGKEMELVAAISSRGGTTSDAVSVKGRFTISRDHAKNTVYFQMNSLKPEDTAVYYCAARQVVPSYRYPYGYWGQGTQVTVSS
  polyreactivity (PSR sort gate): high polyreactivity

## QVQLVETGGGLVQAGGSLRLSCAASGSIFTNYVMGWYRQAPGKERELVAAINWSGGSTYYADSVKGRFTISRDNAKNTVYLQMNSLKQEDTAVYFCASESFSDGSPYNYWGQGPQVTVSS
  polyreactivity (PSR sort gate): low polyreactivity

## QVQLVESGGGLVQAGGSLRLSCAASGFIFWYYAMGWYRQSPGTERELVAGITSGGSTNYADSVKGRFTISRDNAKNTVYLQMNSLKPEDTAVYYCAAAPYGGFGRGYDYWGQGTQVTVSS
  polyreactivity (PSR sort gate): high polyreactivity

## QVQLVESGGGLVQAGGSLRLSCAASGRTFDYNAMGWSRQAPGKERELVAAISSSGGSTYYADSVKGRFTISRDNAKNTVYLQMNSLKPEDTAVYYCATLYPRKSIYYYWGQGTQVTVSS
  polyreactivity (PSR sort gate): high polyreactivity

## QVQLVESGGVLVQSGGSLRLSCAASGFIFYDYAMGWYRQAPGKEREMVAAITSGGSTYYADSVKGRFTISRDNAKNTVYLQMKSLKPEDTAVYYCAADAYNLDDDTYDYWGQGTIVTVSS
  polyreactivity (PSR sort gate): low polyreactivity

## QVQIVESGGGLVQAGGSHRLSCAASVFTFGGNVMGWYRQAPGKEREFVAAISSSGGSTYYADSVKGRFTISRDNEKNTVFLQINSLKPDDTAVYYCAKYAVVYQYRYYHWGQGTQVTVSS
  polyreactivity (PSR sort gate): high polyreactivity

## QVQLVESGGGLVQAGGSLRLSCAASGRIFYLYAMGWYRQAPGKERELVATISGSGGSTYYADSVKGRFTISRDNAKNTVYLLMISLKPEDTAVYYCAAVSVSSWYDYWGQGTQVSVSS
  polyreactivity (PSR sort gate): low polyreactivity

## QVQLVESGGGLVQAGGSLRLSCAASGFTFSWYAMGCYRQAPGKVRELVAAITSRGGITYYADSVKGRFTISRDNAKNTVYLQMNSLKPEDTAVYYCNAYSQRYGYYYWGQGTQVTVSS
  polyreactivity (PSR sort gate): high polyreactivity

## QVQLVESGGGLVQAGGSLRLSCAASGFIFWHYTMGWYRQAPGKERELVAASTWTGGSTYYADSVKGRFTISRDNEKNTVYLQMNSLKPEETAVYYCNADYPGEGITYGYWGQGTQVTLSS
  polyreactivity (PSR sort gate): low polyreactivity

## QDQLVESGGGLVQAGGSLRLSCAASGSTFGYYAMGWYRQAPGKERELVAAITWNGGSTYADSVKGRFTISRDNAKNTVYLQMNSLKPEDTAVYYCAALVHRRVQYDYWGQGTQVTVSS
  polyreactivity (PSR sort gate): high polyreactivity

## QVQLVESGGGLVQAGGSLRLSCAASGGNLPYNVMGRYRQAPGKEWELVAAITSGVNTNYADSVKGRFTISRDNAKNTVYLQMNSLKPEDTAVYYCAARSGGPSDGSGYWGQGTQVTVSS
  polyreactivity (PSR sort gate): low polyreactivity

## QVQLVESGGGLVQAGGSLRLSCAASGRTFSVYTMGWYRQAPGKERELVASISRSGGRTYYADSVKGRFTISRDNAKNTVYLQMNSLKPADTAVYYCAARWYSASALKYYYWGQGTQVTVSS
  polyreactivity (PSR sort gate): high polyreactivity
